The DeepSol protein solubility set

assay: soluble on expression in E. coli; label from the status in PepcDB or PDB records

Row | Sequence | soluble on expression in E. coli
1 | MSLTADTSLSSIQEAINVVQQYNATDPVRLKLFHTPRMVSQGAHFAFCLPTKKPHYKPLLLSQNALDEFNLVQDQDLEKILSGEKVYYSDSIFPYSTVYSGFQFGSFAAQLGDGRVVNLFDLKDKCSGQWQTFQLKGAGMTPFSRFADGKAVLRSSIREFIMSEALHSIGIPSTRAMQLTLLPGTKAQRRNQEPCAVVCRFAPSWIRLGNFNLFRWRHDLKGLIQLSDYCIEELFAGGTQFEGKPDFNIFKRDFFPDTETKIDEQVEKDETEVSTMTGDNISTLSKYDEFFRHVVSLNANTVAHWQAYGFANGVLNTDNTSIMGLTIDYGPFAFLDKFEPSFTPNHDDTAKRYSFANQPSIIWWNLQQFAKDLACLLGPEARDLELLLKGELNSVDDALEKTMIERVQKLVELSANEYKYVFTTRYAQIMSQRLGVDLDLEKCMSSTNLKDIEHAAEKAKEFCDVIVEPLLDILQATKVDYNNFFIHLQNYKGPFFIKDKSDTATLFGAFDEEYLGMFFNSKQLQQMAETEEAFAAGEKVFDANGELRLLNEKLQEIRNWTQDYLTLVPPTETAARASLAKKANPLFVPRSWVLEEVVDDLMYSQRDGLQDPSSELDTSALKKLYLMSVNPYDRTKWDVTLRPELETKWADLSHQDDAKFMMQASCSSEGHHHHHH | soluble
2 | VSDVPRDIEVVAVTPTSALISWDAPAVTIRYIRLTYGETGGNSPVQEITLPGSKSTYTISGLKPGTDYTVTLYSVTGRGDSPASSKPASINFRTEI | soluble
3 | MSTTHNSLPASSDKHHDGHGEASLYHDSHGHAWSGNPNYTLTQLIPELRINLGSSLDIGSGEGADAAWLASLGWKAVGLEPSGVAVERSRELSSNATFIQGKVPQDLDRCGGPFDLVTGFYIPIAGEDAWRAIARQVADGGYLIYVHHNLDELRAKGHPLLGRDDLLMPFDAADLAPSGAWEIVVHETRHREIVGGHGHHHHLDDVLVLKRRKK | not soluble
4 | MSLTSWNATIDPDNTIRFKEPDVLFDSGKSQVKERFKVVLDDFFPRYVKILSQEKYKGDIEEIRIEGHTSSEWLNAKTLEERYLGNAALSQARAFEVLKYCFALERIKGEQDWLIKVLRANGLSFAKPLDSEEHSRRVEFRTLTRSHQKMLKILDLSKEGHHHHHH | not soluble
5 | MDVIREYLMFNELSALSSSPESVRSRFSSIYGTNPDGIALNNETYFNAVKPPITAQYGYYCYKNVGTVQYVNRPTDINPNVILAQDTLTNNTNEPFTTTITITGSFTNTSTVTSSTTTGFKFTSKLSIKKVFEIGGEVSFSTTIGTSETTTETITVSKSVTVTVPAQSRRTIQLTAKIAKESADFSAPITVDGYFGANFPKRVGPGGHYFWFNPARDVLNTTSGTLRGTVTNVSSFDFQTIVQPARSLLDEQ | soluble
6 | MGSDKIHHHHHHMRGYFRADWTERVELSEHDIGELRFSLKNRLGEALLLTSQEDMLRYCRDWHGDVTSSAVAVIRPRSTKEVSDTVIACAELGLAIIPQGGNTGLVLGGIPDAPKHQVVLSLERMNAIRTIDSDDFSAVVEAGCILSEFKDAVQDKGMFFPLSLGAQGSCRIGGNVSTNAGGINVLRYGMTRELVLGLEVVLPDGTIWNGLSTLRKDNRGIDLKQLFIGAEGTLGIITAVAVKLYPNPEHVETALLGLNSLDDAIKLYRRARRECCDLMSAFEFMPPVAFTLAIEAIPDLKMPIAGDYPAYVLMEISGSGLVDTADLMGRFLEGVMEDGLVLDGVIASSRAQAQSLWLFREGMNEGQALRGSHMRTDISVPLSKLAAFVAEAEAELAEKLPECLAVSYGHVGDGNVHLNVLPPNGATLEEREAFIYKSKTLVNEVLDRYVGSISAEHGIGRLKRSDFESRLSDVQRRMITGLKNAFDPDLRMNPGCQITLQPDS | not soluble
7 | MGSDKIHHHHHHMLLTTRPPSPDSIPCCAGCSMARVCLAGNCDSDGEGPADGLAQRVIRLRKGEPLYLLGDPLAALFAVRVGTVKTHVATEDGRTQVVGFHFPGEVVGLDSIGRRQYASYATALEDTKVCMIPMDVLRPLAACTPALASRVFRALDGYAQRTRALQTLLALMTAEERLVTFLLWISEGLAARGFSSSEFILRMSREEIGSYIGLTLETVSRQFSRLAECGLIRVKHRSVALVDKAGLRAIADRSAISPIPPGTNRRRGGEQRVPAQALRTSAPAWATRTQPATAAMQADNPKINPFAWEAGNGQQ | not soluble
